Article doi:10.1101/2022.11.04.515266

Legend:
[1] = molecular target: Sinorhizobium meliloti Clr, C-terminally His6-tagged (Sinorhizobium meliloti); assay: SEC
[2] = molecular target: Sinorhizobium meliloti Clr, C-terminally His6-tagged (Sinorhizobium meliloti); assay: crystal structure

percent in the monomeric state (monomer-dimer equilibrium) [1]: 86%
stoichiometry N [2]: 2
Substance: Sinorhizobium meliloti Clr, C-terminally His6-tagged (natural protein)
